Measured values: article PMC3540129

Key:
[1] = molecular target: Kv7.4 (KCNQ4) B segment (Q4B, residues 522-557), tag removed (human) (UniProt P56696); test: SEC-MALS
[2] = molecular target: Kv7.5 (KCNQ5) B-D construct (Q5BD), tag removed (human) (UniProt Q9NR82); test: SEC

Chain of UniProt P56696 (P56696 522-557): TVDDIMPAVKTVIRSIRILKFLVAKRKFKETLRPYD

Substance	stoichiometry N [1]	stoichiometry N [2]
Calmodulin (CaM), full-length native (from UniProt P0DP23 1-149) (natural protein)	1	
Kv7.5 (KCNQ5) B-D construct (Q5BD), tag removed (from UniProt Q9NR82 1-932) (domain or fragment)		4
